This is an account of results in paper PMC9973270, “RdmA Is a Key Regulator in Autoinduction of DSF Quorum Quenching in Pseudomonas nitroreducens HS-18” (mBio, 2022).

One data set deals with T1, RdmA (Pseudomonas nitroreducens, UniProt A0ABS0KS77).
T1 construct: gene I5I61_25840; full length, 206 residues; N-terminal His6 tag, vector pET32a, expressed in E. coli BL21(DE3); dimer proposed
T1 sequence (A0ABS0KS77 1-206): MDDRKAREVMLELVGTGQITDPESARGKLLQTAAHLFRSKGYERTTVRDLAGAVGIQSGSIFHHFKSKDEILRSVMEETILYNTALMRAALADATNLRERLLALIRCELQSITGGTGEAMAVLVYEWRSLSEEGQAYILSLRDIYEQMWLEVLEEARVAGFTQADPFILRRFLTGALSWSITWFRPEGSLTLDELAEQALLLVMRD
The data set is described as follows: EMSA, inhibition of RdmA binding to biotin-labelled dmgA promoter. The note with it: RdmA 2 uM preincubated with DSF 30 min at 30 C before promoter fragment F1 (30 min, 22 C); solvent methanol. For orientation: Mobility shift assays separate free from complexed probe on a gel.

The subject of data set [1] is T2, RdmA (Pseudomonas nitroreducens HS-18), ORF:ff03b8a4.
T2 sequence: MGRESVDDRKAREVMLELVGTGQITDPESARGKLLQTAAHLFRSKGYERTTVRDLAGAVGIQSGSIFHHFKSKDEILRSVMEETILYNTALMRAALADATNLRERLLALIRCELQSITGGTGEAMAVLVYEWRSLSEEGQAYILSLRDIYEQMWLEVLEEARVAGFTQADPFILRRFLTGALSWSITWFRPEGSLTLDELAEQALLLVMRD
The experiment in a line: EMSA. The note with it: LightShift chemiluminescent EMSA kit (buffer per manufacturer; pH and salt not stated), 10 uL, 2 nM biotin-DNA (20 fmol; Fig 5 legend says 10 nM), 0-4 uM RdmA ….

Take `CC(C)CCCCCCC/C=C\C(=O)O` [DSF, cis-11-methyl-2-dodecenoic acid]: the “concentration giving complete inhibition of DNA binding” value on RdmA is given as 0.9 mM.
For the molecule “GCTTTCTCTCCCCATGGGTCCCATCTGGCCACCTTGCTCAGGGCAATTCATCGAATCGCCCCGCAAGTGCTTGTGTTGTCTGACGAAATGTAAGCCCGCGAGTGCCAACCA (double strand) [PdmgA F4]”, in data set [1], the binding entry was “no binding”.
“GCTTTCTCTCCCCATGGGTCCCATCTGGCCACCTTGCTCAGGGCAATTCATCGAATCGCCCCGCAAGTGCTTGTGTTGTCTGACGAAATGTAAGCCCGCGAGTGCCAACCAAGCAAGCGCTTGG (double strand) [PdmgA F3]”: the binding entry in data set [1] is “binds more weakly”.
On to “GCTTTCTCTCCCCATGGGTCCCATCTGGCCACCTTGCTCAGGGCAATTCATCGAATCGCCCCGCAAGTGCTTGTGTTGTCTGACGAAATGTAAGCCCGCGAGTGCCAACCAAGCAAGCGCTTGGCCATCCAATGGTTGGGGTAGTCATCGACTCGGGGCTTTTCAACCAAGCGCTTGCT (double strand) [PdmgA F2]”, for which the binding entry in data set [1] is recorded as “binds more weakly”.
